Results as given in patent US12723255B2, “Herbicide tolerance genes and methods of use thereof” (priority 2014, dated 2026).
Where two headings read alike, the source gives them in different places.

What was measured:
[1] = enzyme kinetic measurements with purified protein; format: biochemical; conditions: for Km: 0-1280 uM substrate; for Vmax Fenoxaprop / Vmax Fluazifop / Vmax Haloxyfop / Vmax Quizalofop-P: relative values
Protocol: The high-throughput herbicide degradation enzyme assay was designed to assay the enzymatic activity of the engineered proteins towards various herbicides using crude bacterial extract. The engineered protein's oxygenase activity (that is, its enzymatic activity) was measured by an end point colorimetric assay utilizing detection of phenol products through measurement of absorbance at 510 nm from 4-aminoantipyrine and potassium ferricyanide. This assay was based on the assay described in Fukomori and Hausinger, Journal of Biological Chemistry (1993) 268(32):24311-24317. Enzyme reactions were assayed in 96-well plates in a total volume of 150ul that contained: 20 mM MOPS pH 6.75, 50-200 uM NH4FeSO4, 50-200 uM sodium ascorbate, 1 mM alpha-ketoglutarate (aKG), 10 ul of E. coli cell lysate containing expressed engineered protein, and substrate (either an AOPP herbicide or phenoxy acid herbicide). […] Absorbance measurements were made on a standard laboratory spectrometer. Assays were scaled as needed to enhance throughput. Standard curves were generated using purified protein or product standards.
Further protein characterization, such as Km, Vmax, and crystal structure analysis, was performed using the five engineered proteins from Table 2. For this detailed analysis, purified protein was prepared as follows: 2 ml overnight cultures of E. coli expressing a transgene encoding a given MON-HT protein were used to inoculate 500 ml of broth and grown at 37° C. for 4 hours followed by culture at 15° C. for approximately 36 hours. Then 250 ml of the 500 ml bacterial culture was pelleted by centrifugation and resuspended in 25 ml of extraction buffer (20 mM Tris, pH 7.8, 300 mM NaCl, 5 mM beta-mercaptoethanol (BME), 20 mM imidazole (Fluka/Sigma-Aldrich, St. Louis, MO), 125 units/ml of benzonase and 10K units/ml of lysozyme (Novagen, Darmstadt, Germany). The cell slurry was passed through a cell disruptor once at 20000 psi and then this cell lysate was clarified by centrifugation at 35,000×g for 20 min at 4° C. The supernatant containing the soluble His-tagged proteins was used for protein purification. For this purification, the supernatant was applied to a 1 ml HisTrap™ FF column (Nickel Sepharose) (GE Healthcare, Piscataway, NJ) using an AKTaxpress™ system (GE Healthcare, Piscataway, NJ) following the standard manufacturer's protocol. The wash buffer consisted of: 20 mM Tris pH 7.8, 300 mM NaCl, 20 mM imidazole and 5 mM BME. The composition of elution buffer was the same as the wash buffer except with 500 mM imidazole. The eluate from the nickel column was desalted on a Quick Spin Protein Sephadex G-25 fine column (Roche Applied Science, Indianapolis, IN) following the manufacturer's protocol. The eluted protein was in buffer consisting of: 20 mM Tris pH 7.8, 50 mM NaCl and 5 mM BME. Protein extract purity was assessed by SDS-PAGE analysis. Protein concentration was determined by Bradford assay using Bio-Rad Protein Assay dye reagent (Biorad, Hercules, CA, cat no 500-0006).
Purified protein for the five engineered proteins was analyzed using the enzyme assay described in this Example 1, but with four different AOPP herbicides as substrates: quizalofop-P, haloxyfop, fenoxaprop, and fluazifop. Standard curves were generated using 2,4-dichlorophenol (2,4-DCP), which was used to produce a general phenol standard curve. The amount of phenol generated in the assay by the engineered proteins was calculated based on this standard curve. The controls were purified wild-type enzyme, no enzyme, and no substrate. Enzyme kinetic measurements of the five engineered proteins was done using 0, 20, 40, 80, 160, 320, 640, or 1280 uM of quizalofop-P, haloxyfop, fenoxaprop, or fluazifop herbicides.

[2] = test system: transgenic soybean plants; assay: R0 soybean green house 2,4-D spray test; format: in vivo; conditions: single copy R0 soy events
Text: Two engineered proteins were selected for analysis in transgenic soybean. DNA constructs were produced for expressing MON-HT1 (SEQ ID NO:14) and MON-HT2 (SEQ ID NO:18) with codon usage optimized for dicot expression using methods known to those skilled in the art. Enhancers, promoters, leaders, introns, CTPs, and 3′UTRs in various combinations were operably linked to the engineered proteins in these DNA constructs. The DNA constructs were used to transform soybean using Agrobacterium tumifaciens and standard methods known in the art. Regenerated R0 transgenic plantlets were grown in the green house. Approximately 9 weeks after transformation at the 1-2 trifoliate leaf stage, single copy R0 events were identified and sprayed with 2,4-D herbicide at a rate of 0.5× (0.375 lb ae/acre), 2× (1.5 lb ae/acre), or 4× (3.0 lb ae/acre). Approximately 2 weeks after herbicide application, the plants were rated for herbicide injury on a scale of 1 to 3, where 1=little to no injury (<20%), 2=moderate injury (20-50%) and 3=severe injury (>50%).

[3] = CTP No, 2,4-D rate 0.5X, about 2 weeks after application

Row | Molecule | Km ([1]; read-out: Km Fenoxaprop) | Km ([1]; read-out: Km Fluazifop) | Km ([1]; read-out: Km Haloxyfop) | Km ([1]; read-out: Km Quizalofop-P) | Vmax Fenoxaprop [1] | Vmax Fluazifop [1] | Vmax Haloxyfop [1] | Vmax Quizalofop-P [1] | Events with 20-50% injury ([2]; CTP No, 2,4-D rate 0.5X) | Events with injury >50% ([2]; CTP No, 2,4-D rate 0.5X) | Events with <20% injury [2, 3] | Events with 20-50% injury ([2]; CTP No, 2,4-D rate 2X) | Events with <20% injury ([2]; CTP No, 2,4-D rate 2X) | Events with injury >50% ([2]; CTP No, 2,4-D rate 2X) | Events with 20-50% injury ([2]; CTP Yes, 2,4-D rate 2X) | Events with <20% injury ([2]; CTP Yes, 2,4-D rate 2X) | Events with injury >50% ([2]; CTP Yes, 2,4-D rate 2X) | Events with 20-50% injury ([2]; CTP Yes, 2,4-D rate 4X) | Events with <20% injury ([2]; CTP Yes, 2,4-D rate 4X) | Events with injury >50% ([2]; CTP Yes, 2,4-D rate 4X)
1 | MON-HT55: engineered oxygenase protein, amino acid sequence SEQ ID NO:11 (protein) MHAALSPLSQRFERIAVQPLTGVLGAEITGVDLREPLDDSTWNEILDAFHTYQVIYFPGQAITNEQHIAFSRRFGPVDPVPLLKSIEGYPEVQMIRREANESGRVIGENWHTDSTFLDAPPAAVVMYAKEIPPYGGDTLFTSMYTAWETLSPTMQATIEGLNVVHSATRVFGSLYQAQNRRFSNTSVKVMDVDAGDRETVHPLVVTHPETGRKGLYVNQVYCQRIEGMSEKESEPLLSFLFAHATKPEFTCRVRWQEGDVLVWDNLCTQHYAVPDYAGKFRYLTRTTVGGVRPAR | 200 µM | 50 µM | 450 µM | 250 µM | 450 | 320 | 190 | 320 | – | – | – | – | – | – | – | – | – | – | – | –
2 | MON-HT1: engineered oxygenase protein, amino acid sequence SEQ ID NO:14 (protein) MHAALTPLTNKYRFIDVQPLTGVLGAEITGVDLREPLDDSTWNEILDAFHTYQVIYFPGQAITNEQHIAFSRRFGPVDPVPILKSIEGYPEVQMIRREANESSRFIGDDWHTDSTFLDAPPAAVVMRAIEVPEYGGDTGFLSMYSAWETLSPTMQATIEGLNVVHSATKVFGSLYQATNWRFSNTSVKVMDVDAGDRETVHPLVVTHPVTGRRALYCNQVYCQKIQGMTDAESKSLLQFLYEHATKFDFTCRVRWKKDQVLVWDNLCTMHRAVPDYAGKFRYLTRTTVAGDKPSR | – | – | – | – | – | – | – | – | 10 | 0 | 120 | 30 | 6 | 0 | 35 | 101 | 0 | 6 | 5 | 0
3 | MON-HT2: engineered oxygenase protein, amino acid sequence SEQ ID NO:18 (protein) MHAALTPLTNKYRFIDVQPLTGVLGAEITGVDLREPLDDSTWNEILDAFHTYQVIYFPGQAITNEQHIAFSRRFGPVDPVPLLKSIEGYPEVQMIRREANESSRVIGDDWHSDSTFLDAPPAAVVMRAIEVPEYGGDTGFLSMYSAWETLSPTMQATIEGLNVVHSATKVFGSLYQATNWRFSNTSVKVMDVDAGDRETVHPLVVTHPVTGRRALYCNQVYCQKIQGMTDAESKSLLQFLYEHATKFDFTCRVRWKKDQVLVWDNLCTMHRAAPDYAGKFRYLTRTTVAGDKPSR | – | – | – | – | – | – | – | – | 19 | 0 | 3 | – | – | – | – | – | – | – | – | –
4 | MON-HT51: engineered oxygenase protein, amino acid sequence SEQ ID NO:1 (protein) MHAALSPLSQRFERIAVQPLTGVLGAEITGVDLREPLSDSTWNEILDAFHTYQVIYFPGQAITNEQHIAFSRRFGPVDPVPLLKSIEGYPEVQMIRREANESGRVIGDDWHTDSSFLDAPPAAVVMRAIDVPEHGGDTGFLSMYTAYDALSDGLKKLISGLNVVHSATRVFGSLYQAQNRRFSNTSVKVMDVADGDRETVHPLVVTHPGSGRKGLYVNQVYCQRIEGMSEKESEPLLSFLFAHATKPEFTCRVRWKKDQVLVWDNLCTMHYAINDYHGQTRILHRTTVGGVRPAR | 870 µM | 4 µM | 250 µM | 570 µM | 180 | 12 | 48 | 120 | – | – | – | – | – | – | – | – | – | – | – | –
